The record followed here is patent US7939057B2, “Methods and compositions for modulating the mobilization of stem cells” (Mount Sinai School of Medicine, priority 2006, dated 2011).

The experiment deals with hematopoietic stem and progenitor cells (HSPCs). Description: G-CSF-induced mobilization of hematopoietic progenitors (circulating CFU-C). It counts as in vivo, mice. The protocol: To induce HSPC mobilization, mice were injected with recombinant human G-CSF (Filgrastim, Amgen, Thousand Oaks, Calif., 250 μg/kg/day, every 12 hours, 8 divided doses, s.c.) in PBS supplemented with 0.1% endotoxin free bovine serum albumin (BSA) or fucoidan (Sigma; 2 doses of 100 mg/kg with 2 h interval, i.p.) in PBS. Blood was harvested 3 h (G-CSF) or 1 h (fucoidan). CFU-C assays were carried out as previously described (Katayama, Y., and Frenette, P. S. (2003). Galactocerebrosides are required postnatally for stromal-dependent bone marrow lymphopoiesis. Immunity 18, 789-800).
A chronic guide cannula (1.0 mm) was implanted stereotaxically into the lateral ventricle (coordinates AP, −0.7 mm; DV, −2.4 mm; ML, 1.5 mm, from bregma). One week after implantation, mice received a reduced dose of G-CSF (25 μg/kg daily for 4 doses) either by ICV infusion (rate: 0.4 μL/min) or by s.c. injection.
Newborn C57BL/6 mice were injected s.c. with 6OHDA (100 mg/kg, Sigma) or vehicle (saline) on postnatal days 2, 4, 6, 8 and 9. HSPC mobilization was induced at 3 weeks of age. For SNS disruption in adult C57BL6 mice, 4 week-old animals were injected i.p. with 2 doses of 6OHDA or vehicle, 100 mg/kg on day 0, 250 mg/kg on day 2, and G-CSF treatment was begun on day 5. For β-adrenergic receptor blockade, 4 week-old C57BL/6 mice were treated with propranolol (0.5 g/L in drinking water, Sigma) or control pure water for 3 weeks prior to mobilization. For rescue experiments, clenbuterol (2 mg/kg/day, i.p.) was injected starting day −2 prior to and continued during G-CSF treatment.

B1: G-CSF: recombinant human G-CSF (Filgrastim, Amgen), hematopoietic cytokine used to elicit HSPC mobilization (protein, UniProt P09919 31-207, looked up)
Granulocyte …: TPLGPASSLPQSFLLKCLEQVRKIQGDGAALQEKLVSECATYKLCHPEELVLLGHSLGIPWAPLSSCPSQALQLAGCLSQLHSGLFLYQGLLQALEGISPELGPTLDTLQLDVADFATTIWQQMEELGMAPALQPTQGAMPAFASAFQRRAGGVLVASHLQSFLEVSYRVLRHLAQP
modifications: filgrastim
notes: recombinant human G-CSF (Filgrastim, Amgen), hematopoietic cytokine used to elicit HSPC mobilization
As to B1, where the note is “C57BL/6 mice, ICV infusion vs s.c. injection, 25 μg/kg daily for 4 doses”, the “HSPC mobilization by route of G-CSF” value is reported as “robust HSPC mobilization occurred only when mice were treated systemically”. In addition, under “CD45.1 wild-type mice reconstituted with Cgt+/+ or −/− BM”, the “G-CSF-induced mobilization in chimeric mice” value was “similar”. In addition, the “G-CSF-induced mobilization of HSPCs” value (Cgt−/− mice compared to Cgt+/− or +/+ littermates) is reported as “little mobilization”. Moreover, the “G-CSF-triggered mobilization of CFU-Cs and Lin-Sca-1+c-kit+ cells” value (Dbh−/− compared to Dbh+/− littermates) is on record as “dramatically compromised”. Besides, for the setting “Lepr(db/db) vs Lepr(+/db) mice, human G-CSF 250 μg/kg/day, n=5”, the “numbers of circulating progenitors after G-CSF” value was “no difference”. For the same molecule, the “circulating CFU-Cs elicited by G-CSF” value (Rag 1−/− and IL7Rα−/− mice, data not shown) is recorded as “elicited at levels similar to those of wild-type mice”.
